In US20250026844A1:
Several values for one entry are separate records, joined by “and”; a condition that tells them apart may be missing. Identical values can stand only once.

Columns and labels:
[1] = biological target: human BCMA on cells (human) (UniProt Q02223); test: FACS, H929 cells
[2] = biological target: human BCMA on cells (human) (UniProt Q02223); test: FACS, U266 cells
[3] = biological target: human BCMA-His protein (human) (UniProt Q02223); test: ELISA, coated human BCMA-His, antibody 0.0001 nM
human BCMA-His protein (human), sequence (Q02223 1-54 limits assumed): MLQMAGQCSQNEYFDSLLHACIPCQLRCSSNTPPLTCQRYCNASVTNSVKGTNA

[4] = biological target: human BCMA on cells (human) (UniProt Q02223); test: FACS, U266 cells; remark: listed apart in the source
[5] = biological target: human BCMA-His protein (human) (UniProt Q02223); test: ELISA, coated human BCMA-His, antibody 100 nM
[6] = biological target: human BCMA-His protein (human) (UniProt Q02223); test: ELISA, coated human BCMA-His, antibody 0.01 nM
[7] = biological target: human BCMA on cells (human) (UniProt Q02223); test: FACS, H929 cells; remark: listed apart in the source
[8] = biological target: human BCMA on cells (human) (UniProt Q02223); test: FACS, U266 cells; remark: listed apart in the source
[9] = biological target: monkey BCMA-His protein (monkey); test: ELISA, coated monkey BCMA-His, antibody 10 nM
monkey BCMA-His protein (monkey), sequence (A0A2K5 entry or part of it limits assumed): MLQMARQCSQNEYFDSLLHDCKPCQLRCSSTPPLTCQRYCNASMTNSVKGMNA

[10] = biological target: human BCMA on cells (human) (UniProt Q02223); test: FACS, U266 cells; remark: listed apart in the source
[11] = biological target: human BCMA-His protein (human) (UniProt Q02223); test: ELISA, coated human BCMA-His, antibody 0.1 nM
[12] = biological target: monkey BCMA-His protein (monkey); test: ELISA, coated monkey BCMA-His, antibody 1 nM
[13] = biological target: monkey BCMA-His protein (monkey); test: ELISA, coated monkey BCMA-His, antibody 100 nM
[14] = biological target: monkey BCMA-His protein (monkey); test: ELISA, coated monkey BCMA-His, antibody 0.001 nM
[15] = biological target: human BCMA on cells (human) (UniProt Q02223); test: FACS, H929 cells; remark: listed apart in the source
[16] = biological target: human BCMA-His protein (human) (UniProt Q02223); test: ELISA, coated human BCMA-His, antibody 1 nM
[17] = biological target: monkey BCMA-His protein (monkey); test: ELISA, coated monkey BCMA-His, antibody 0.1 nM
[18] = biological target: human BCMA on cells (human) (UniProt Q02223); test: FACS, Flp-in CHO-human BCMA cells
[19] = biological target: monkey BCMA-His protein (monkey); test: ELISA, coated monkey BCMA-His, antibody 0.01 nM
[20] = biological target: human BCMA-His protein (human) (UniProt Q02223); test: ELISA, coated human BCMA-His, antibody 0.001 nM
[21] = biological target: human BCMA on cells (human) (UniProt Q02223); test: FACS, H929 cells; remark: listed apart in the source
[22] = biological target: human BCMA-His protein (human) (UniProt Q02223); test: ELISA, coated human BCMA-His, antibody 10 nM
[23] = biological target: monkey BCMA on Flp-inCHO cells (monkey); test: FACS, Flp-in CHO-monkey BCMA cells
[24] = biological target: monkey BCMA-His protein (monkey); test: ELISA, coated monkey BCMA-His, antibody 0.0001 nM

human BCMA on cells (human), sequence (Q02223 whole entry): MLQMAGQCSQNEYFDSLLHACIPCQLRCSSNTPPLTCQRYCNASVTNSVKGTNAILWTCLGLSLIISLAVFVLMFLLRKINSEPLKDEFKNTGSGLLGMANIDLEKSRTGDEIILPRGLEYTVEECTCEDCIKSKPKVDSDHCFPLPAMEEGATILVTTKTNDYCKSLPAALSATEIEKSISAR

“anti-hel-hlgG1 (negative control antibody against hen egg lysozyme)” was tested, and the Maximum mean fluorescence intensity [1] was 99 MFI and 91 MFI and 167 MFI, the Maximum mean fluorescence intensity [2] was 103 MFI and the OD450 nm [3] was 0.05 OD450 nm. For the same substance, the Maximum mean fluorescence intensity [4] was 149 MFI, the OD450 nm [5] was 0.12 OD450 nm and the OD450 nm [6] was 0.05 OD450 nm. The Maximum mean fluorescence intensity [7] was 121 MFI, the Maximum mean fluorescence intensity [8] was 124 MFI and the OD450 nm [9] was 0.06 OD450 nm. For the same substance, the Maximum mean fluorescence intensity [10] was 108 MFI and 111 MFI and 119 MFI, the OD450 nm [11] was 0.05 OD450 nm and the OD450 nm [12] was 0.05 OD450 nm. For the same substance, the OD450 nm [13] was 0.1 OD450 nm, the OD450 nm [14] was 0.05 OD450 nm and the Maximum mean fluorescence intensity [15] was 93 MFI. The OD450 nm [16] was 0.05 OD450 nm, the OD450 nm [17] was 0.05 OD450 nm and the Cell mean fluorescence density [18] was 54.6 MFI. The OD450 nm [19] was 0.04 OD450 nm, the OD450 nm [20] was 0.05 OD450 nm and the Maximum mean fluorescence intensity [21] was 110 MFI. The OD450 nm [22] was 0.07 OD450 nm, the Cell mean fluorescence density [23] was 49 MFI and the OD450 nm [24] was 0.05 OD450 nm.
